Measurements: patent US20240025993A1, “CD19 BINDING MOLECULES AND USES THEREOF” (NOVARTIS AG, priority 2020, published 2024)

Target: human Fc gamma receptor 1A (human) (UniProt P12314)
Test: SPR (Biacore T200), antibody amine-coupled on CM5 chip, receptor as analyte

Chain of human Fc gamma receptor 1A (human) (P12314 16-288 limits assumed): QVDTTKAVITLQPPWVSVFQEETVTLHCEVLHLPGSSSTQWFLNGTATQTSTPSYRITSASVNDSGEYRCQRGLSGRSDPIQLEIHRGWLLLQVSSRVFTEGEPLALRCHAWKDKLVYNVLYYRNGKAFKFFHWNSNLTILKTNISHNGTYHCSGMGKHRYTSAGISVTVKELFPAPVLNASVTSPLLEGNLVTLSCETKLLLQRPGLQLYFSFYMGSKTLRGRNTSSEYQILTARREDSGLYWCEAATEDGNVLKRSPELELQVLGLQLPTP

Substance: Anti-CD3 human IgG1 antibody, DANAPA Fc variant (D265A/N297A/P329A)
- Maximum response at 100 nM hFcgammaRIA (RU): 11 RU

Substance: Anti-CD3 human IgG1 antibody, DAPASK Fc variant (D265A/P329A/S267K)
- Maximum response at 100 nM hFcgammaRIA (RU): 13 RU

Substance: Anti-CD3 human IgG1 antibody, GADAPA Fc variant (G237A/D265A/P329A)
- Maximum response at 100 nM hFcgammaRIA (RU): 16 RU

Substance: Anti-CD3 human IgG1 antibody, GADAPASK Fc variant (G237A/D265A/P329A/S267K)
- Maximum response at 100 nM hFcgammaRIA (RU): 10 RU

Substance: Anti-CD3 human IgG1 antibody, LALAGA Fc variant (L234A/L235A/G237A)
- Maximum response at 100 nM hFcgammaRIA (RU): 15 RU

Substance: Anti-CD3 human IgG1 antibody, LALAPG Fc variant (L234A/L235A/P329G)
- Maximum response at 100 nM hFcgammaRIA (RU): 18 RU

Substance: Anti-CD3 human IgG1 antibody, LALASKPA Fc variant (L234A/L235A/S267K/P329A)
- Maximum response at 100 nM hFcgammaRIA (RU): 9 RU
